Publication PMC10725492 (Translational Psychiatry, 2023)
No end group written: not given here. *: point of attachment. Palmitoyl = CCCCCCCCCCCCCCCC(=O)*

Target: T1, recombinant APP N-terminal (18-612) fragment (UniProt P05067-4 18-612)
T1 construct: also called APP18-612; N-terminal APP; source: expressed by KMD Bioscience
Assay: SPR
Conditions: both partners purified

T1 sequence (P05067 other isoform, or with tags, fused parts or gaps): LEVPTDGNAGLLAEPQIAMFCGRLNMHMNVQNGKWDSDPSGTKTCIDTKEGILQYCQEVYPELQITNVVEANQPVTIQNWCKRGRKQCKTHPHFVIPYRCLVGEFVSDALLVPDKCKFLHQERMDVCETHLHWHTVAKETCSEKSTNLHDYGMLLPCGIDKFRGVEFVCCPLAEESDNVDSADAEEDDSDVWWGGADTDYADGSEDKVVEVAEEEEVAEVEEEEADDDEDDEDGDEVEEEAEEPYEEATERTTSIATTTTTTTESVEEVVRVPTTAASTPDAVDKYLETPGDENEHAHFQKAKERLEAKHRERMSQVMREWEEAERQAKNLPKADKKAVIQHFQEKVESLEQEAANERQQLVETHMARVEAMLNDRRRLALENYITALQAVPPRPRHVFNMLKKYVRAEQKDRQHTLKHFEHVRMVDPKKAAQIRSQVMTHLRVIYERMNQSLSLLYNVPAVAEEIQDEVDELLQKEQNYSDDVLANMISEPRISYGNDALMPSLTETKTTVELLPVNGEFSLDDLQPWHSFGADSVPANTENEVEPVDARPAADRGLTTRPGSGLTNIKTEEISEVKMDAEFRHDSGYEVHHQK

KKKKKKLKVRLASHLRK(Palmitoyl)ELRKRLLRDA (not fully specified) [AY51 peptide]
Kd: 554 nM
